Our source for the Kd values is patent US20080139456A1, “Macrocyclic Sh2 Domain Binding Inhibitors” (priority 2005, published 2008).

The target in test [1] is Biotinylated Grb2 SH2 domain protein (UniProt P62993). In words: SPR (Biacore S51), steady state, compound injected over immobilized b-Grb2 SH2 domain.
The target of test [2] is T1, Grb2 SH2 domain protein (Homo sapiens, UniProt P62993).
T1 construct: made in house
In words: Biosensor (Biacore S51 surface plasmon resonance) direct binding to chip-bound Grb2 SH2 domain protein. The conditions noted are these: binding affinity to Grb2 SH2 domain protein, complex binding kinetics. How it is done: Biosensor Analysis: Binding experiments were performed on a Biacore S51 instrument (Biacore Inc., Piscataway N.J.). All Biotinylated Grb2 SH2 domain proteins (b-Grb2) were expressed and purified (Protein Expression Laboratory and The Protein Chemistry Laboratory, SAIC—Frederick). The b-Grb2 was immobilized onto carboxymethyl 5′ dextran surface (CM5 sensor chip, Biacore Inc.) by amine coupling. The lyophilized b-Grb2 was reconstituted in fifty percent DMSO in H2O to make a stock solution of 1 mg/mL and stored at −80° C. A 1: 12.5 dilution of b-Grb2 was used for immobilization, by dilution in acetate buffer pH-5.0, with 5% DMSO. 1×PBS (phosphate buffered saline, pH 7.4) was used as the running buffer.
An immobilization wizard was used to optimize the immobilization target. For b-Grb2, 2500-5000 resonance units (RU) of protein were captured on the CM5 sensor chip. Small molecules were serially diluted in running buffer to the concentrations (1.25 nM-1500 nM) as indicated in each sensorgram and injected at 25° C. at a flow rate of 30 μL/min for 2 minutes. Varying concentrations of small molecules were injected in increasing concentrations, and every injection was performed in duplicate within each experiment. […]

Like-named read-outs stand apart in the source and are kept apart here.

Sequence of Biotinylated Grb2 SH2 domain protein (P62993 60-152 limits assumed): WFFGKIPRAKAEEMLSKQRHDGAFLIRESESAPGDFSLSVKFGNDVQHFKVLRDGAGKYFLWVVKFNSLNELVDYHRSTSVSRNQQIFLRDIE
T1 sequence (P62993 60-152 limits assumed): as above

“Cyclo{[(2R,3R)-3-(4-dihydroxyphosphonomethyl)phenyl-2-(hydroxycarbonylmethyl)pent-4-enyl]-Ac6c-L-Asn-D-AllylGly}-(1-naphthyl)methyl amide (4) (peptide)”: the Kd in test [1] was found to be 54.9 nM.

Consider `NC(=O)CC1NC(=O)C2(CCCCC2)NC(=O)[C@@H](CC(=O)O)[C@@H](c2ccc(CP(=O)(O)O)cc2)/C=C/CCC2(CCCCC2)CNC1=O` (some centres unmarked) [compound 24], for which the Kd in test [2] (first of two Kd values, read-out: Kd (complex binding kinetics, first value)) worked out at 9.3 ± 0.1 nM; in test [2] (second of two Kd values, read-out: Kd (complex binding kinetics, second value)), 21300 ± 500 nM. For “Cyclo{[(2R,3R)-3-(4-dihydroxyphosphonomethyl)phenyl-2-(hydroxycarbonylmethyl)pent-4-enyl]-Ac6c-L-Asn-L-AllylGly}-(1-naphthyl)methyl amide (3) (peptide)”, in test [1], the Kd stood at 22.7 nM.

In the case of “[(2R)-3-(4-Dihydroxyphosphonomethyl)phenyl-2-(hydroxylcarbonylmethyl)propionyl]-Ac6c-L-Asn-Gly-(1-naphthyl)methyl amide (2) (peptide)”, in test [1], the equilibrium dissociation constant (Kd) was 5610 nM.
